Source: publication PMC9728131, “Host acid signal controls Salmonella flagella biogenesis through CadC-YdiV axis”

T1: CadCc (Escherichia coli K-12 MG1655 (cloning template per Methods; text discusses Salmonella CadC)) (UniProt P23890)
T1 sequence: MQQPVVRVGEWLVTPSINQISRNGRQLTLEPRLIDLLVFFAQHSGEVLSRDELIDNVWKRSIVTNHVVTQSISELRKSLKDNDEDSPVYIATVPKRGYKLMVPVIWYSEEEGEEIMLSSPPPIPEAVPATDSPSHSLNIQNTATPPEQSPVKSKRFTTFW

T2: H-NS (Escherichia coli K-12 MG1655 (cloning …, UniProt P0ACF8 1-137))
T2 sequence: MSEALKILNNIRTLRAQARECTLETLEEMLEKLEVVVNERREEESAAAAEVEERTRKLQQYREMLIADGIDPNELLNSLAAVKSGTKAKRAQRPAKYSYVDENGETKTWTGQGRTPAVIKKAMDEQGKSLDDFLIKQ

B1: 19 nt overlap DNA of ydiV promoter (dsDNA)
DNA 1: TCATCATATATAATGATAT
DNA 2: ATATCATTATATATGATGA

Key:
[1] = target: T1, CadCc (Escherichia coli K-12 MG1655 (cloning template per Methods; text discusses Salmonella CadC)); assay: BLI; conditions: EMSA: 20 mM Tris-HCl pH 8.0, 100 mM NaCl, 1 mM MgCl2, 1 mM ZnCl2, 4% glycerol, RT 10 min (competition 4 C, 30 min + 30 min); BLI: PBS + 1 mM ZnCl2 (CadCc …)
H-NS = target: T2, H-NS; assay: BLI; PBS without ZnCl2; printed unit umoL; kdis 0.0145/s; EMSA: 20 mM Tris-HCl pH 8.0, 100 mM NaCl, 1 mM MgCl2, 1 mM ZnCl2, 4% glycerol, RT 10 min (competition 4 C, 30 min + 30 min); BLI: PBS + 1 mM ZnCl2 (CadCc, 50 ug/mL) or PBS (H-NS), 25 C; footprinting: 30 C, 30 min; conditions: protein: recombinant; tags: N-terminal 6xHis (pGL01); chain copies: 2; Methods: 'C-terminus'); blunt

Molecule | Kd [1] [nM] | Kd (H-NS) [nM]
TCATCATATATAATGATAT (double strand) [19 nt overlap DNA of ydiV promoter] | 203 | 
B1 |  | 533 ± 12.7
